The values that follow come from patent US20200002709.

Holding throughout (assay): cell_activity
The subject of data set [1] is TaGliadin_T01.1 TALE nuclease pair. The following applies: wheat protoplasts, nuclease only; 0.325% in TABLE 6; 2.40 with TREX, 1.29 with 5-azacytidine, 0.90 with trichostatin A.
Data set [2] concerns TaGliadin_T02.1 TALE nuclease pair. The conditions noted are these: wheat protoplasts; TABLE 7: 0.00 nuclease only, 2.43 with TREX, 5.33 with 5-azacytidine, 0.00 with trichostatin A.
Data set [3] relates to TaGliadin_T03.1 TALE nuclease pair. The conditions noted are these: wheat protoplasts; also 0.00 for all treatments in TABLE 7.

As for “TTAGAGTTCCAGTGCCACAATTGCAGCCACAAAATCCATCTCAGCAACA (double strand) [TaGliadin_T01.1 target]”, the activity (% mutation frequency) in data set [1] turned out to be 1.57. “TCTCATCCTTGCCCTCCTTGCTATCGTGGCGACCACCGCCACAACTGCA (double strand) [TaGliadin_T02.1 target]” returned an activity (% mutation frequency) in data set [2] of 0.746.

Consider “TCAGCAACAGCCACAAGAGCAAGTTCCATTGGTGCAACAACAACAATTTCCA (double strand) [TaGliadin_T03.1 target]”, for which the activity (% mutation frequency) in data set [3] is 0.
